From paper PMC3711072, “The Activity of CCL18 is Principally Mediated through Interaction with Glycosaminoglycans” (Frontiers in Immunology, 2013)
“And” between values parts separate entries of the source, which are not always exact repeats. Equal entries are not always repeated.

T1: Radiolabeled CCL18 (125I-CCL18) (human, UniProt P55774 21-89, 125I label (radiolabeled; residue not stated))
T1 construct: CCL18, radioiodinated; also called tracer; source: bought: Anawa
T1 sequence (looked up): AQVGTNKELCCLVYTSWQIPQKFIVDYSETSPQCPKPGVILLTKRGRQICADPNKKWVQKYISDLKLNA

T2: CCR3 (UniProt P51677 1-355)
T2 construct: CC chemokine receptor CCR3 expressed on L1.2 transfectants; In the functional rows on internalisation the CCR3 is the endogenous receptor of human eosinophils; also called CCR3 on L1.2/CCR3 transfectants; source: L1.2/CCR3 transfectants, on cells
T2 sequence (looked up): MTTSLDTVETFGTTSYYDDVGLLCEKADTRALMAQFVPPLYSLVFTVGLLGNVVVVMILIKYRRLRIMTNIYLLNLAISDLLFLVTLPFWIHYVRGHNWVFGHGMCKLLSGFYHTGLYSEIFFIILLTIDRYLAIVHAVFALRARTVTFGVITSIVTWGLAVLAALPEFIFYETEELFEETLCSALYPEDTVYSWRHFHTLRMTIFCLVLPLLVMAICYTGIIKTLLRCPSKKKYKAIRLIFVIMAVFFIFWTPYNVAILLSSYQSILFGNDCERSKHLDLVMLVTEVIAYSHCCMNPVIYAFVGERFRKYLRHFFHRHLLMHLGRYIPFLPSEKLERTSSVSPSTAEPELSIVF

B1: Evasin-1 (natural protein)
chain: EDDEDYGDLGGCPFLVAENKTGYPTIVACKQDCNGTTETAPNGTRCFSIGDEGLRRMTANLPYDCPLGQCSNGDCIPKETYEVCYRRNWRDKKN
modifications: glycosylated (sites not given)
notes: source: produced as previously described (18, 19)
B2: Evasin-4 (natural protein)
chain: EVPQMTSSSAPDLEEEDDYTAYAPLTCYFTNSTLGLLAPPNCSVLCNSTTTWFNETSPNNASCLLTVDFLTQDAILQENQPYNCSVGHCDNGTCAGPPRHAQCW
modifications: glycosylated (sites not given)
notes: as for B1
B3: CCL11 (ligand)
chain: not shown
notes: chemokine CCL11; source: obtained from PeptroTech or produced as previously described (17)
B4: CC chemokine ligand 18 (CCL18) (ligand, human, UniProt P55774 21-89, looked up)
chain: T1 sequence (looked up)

Key:
[1] = target: B4; assay: SEC; 500 ug CCL18 and an equimolar amount of Evasin incubated 45 min at RT in PBS, Superdex 75 in PBS, 1.5 ml/min, calibrated column; fractions on silver stained SDS-PAGE; CCL18 and Evasins also run alone; settings: both partners purified
[2] = target: T1, Radiolabeled CCL18 (125I-CCL18); assay: radioligand binding; equilibrium competition: increasing concentration of Evasin against 125I-CCL18 binding to L1.2/CCR3 transfectants; Evasin binds the tracer; settings: both partners purified
[3] = target: T2, CCR3; assay: radioligand binding; equilibrium competition binding of 125I-CCL18 on L1.2/CCR3 transfectants, increasing concentration of unlabelled competitor; settings: one partner purified
[4] = target: T2, CCR3; assay: cell-based or functional assay

With B1 as the binder, how does the “stoichiometry N” value [1] read?
The value was 1.

And the IC50 [2]?
The IC50 was 9.92 nM and 7.94 nM.

With B2 as the binder, how does the “stoichiometry N” value [1] read?
Its value is 1.

What about the IC50 [2] of the same binder?
The IC50 was 0.015 nM and 0.03 nM.

B3 was tested. Which IC50 [3] did it give?
The IC50 was 4.99 nM.

How did the “inhibition of CCL11-induced chemotaxis of L1.2/CCR3 transfectants by CCL18 previously incubated with a twofold molar excess of Evasin-3 (no effect of Evasin-3), IC50, n = 3” value [4] turn out when B4 was run?
The value was 446 nM.

And the “inhibition of CCL11-induced chemotaxis of L1.2/CCR3 transfectants by CCL18 with Evasin-3 as a control, IC50 of the experiment shown” value [4]?
Its value is 421 nM.

And the “inhibition of migration of L1.2/CCR3 transfectants to 1 nM CCL11 (blocks CCL11-CCR3), IC50 of the experiment shown” value [4]?
Its value is 557 nM.

And the “inhibition of the chemotactic response of L1.2/CCR3 transfectants induced by 1 nM CCL11 (blocks CCL11-CCR3), IC50, mean of n = 7” value [4]?
Its value is 318 nM.
